Assay results from article PMC2198872.

Molecular target: actin (filamentous actin from chicken pectoralis) (chicken) (UniProt P68139)
Test: laser trap

Row | Substance | displacement duration (t on, time attached to actin) | displacement duration, step 1 of double step events | displacement duration, step 2 of double step events
1 | M5HMM containing only bound calmodulin (from UniProt Q99104 1-1098; P0DP23 1-149) (complex) | 120 ms |  | 
2 | baculovirus-expressed (-)insert isoform of smooth muscle myosin HMM (from UniProt P10587 1-1979) (complex) |  | 468 ms | 400 ms
3 | M5HMM(tag) with calmodulin (from UniProt Q99104 1-1098; P0DP23 1-149) (complex) | 100 ms |  | 
